Earlier results on 1 substance are cited in article PMC8308721, “An Effective and Safe Enkephalin Analog for Antinociception” (Pharmaceutics, 2021).

In the data set the target is [3H]DADLE ([D-Ala2, D-Leu5]-enkephalin). Kind of data set: radioligand.

Regarding “Delta opioid receptor (from UniProt P41143)”, the dissociation constant (Kd) (as a rule, a measure of binding affinity in units of concentration) is 600 pM.
